# From PMC7802950, “Characteristics and expression patterns of six α-galactosidases in cucumber (Cucumis sativus L.)” (PLoS ONE, 2021)
# Columns and labels:
# Settings in all cases: pH and temperature of Km assay not stated
# purified protein = substrate: O=[N+]([O-])c1ccc(O[C@H]2O[C@H](CO)[C@H](O)[C@H](O)[C@H]2O)cc1; assay: purified protein
# [1] = substrate: OC[C@H]1O[C@H](OC[C@H]2O[C@H](O[C@]3(CO)O[C@H](CO)[C@@H](O)[C@@H]3O)[C@H](O)[C@@H](O)[C@@H]2O)[C@H](O)[C@@H](O)[C@H]1O; assay: Lineweaver-Burk plot, hydrolysis; assay type: biochemical, Cucumis sativus
# [2] = substrate: OC[C@H]1O[C@H](OC[C@H]2O[C@H](OC[C@H]3O[C@H](O[C@]4(CO)O[C@H](CO)[C@@H](O)[C@@H]4O)[C@H](O)[C@@H](O)[C@@H]3O)[C@H](O)[C@@H](O)[C@H]2O)[C@H](O)[C@@H](O)[C@H]1O; assay: Lineweaver-Burk plot, hydrolysis; assay type: biochemical, Cucumis sativus
Protein,Km (purified protein) [mM],Km [1] [mM],Km [2] [mM]
"CsAGA2 (Cucumis sativus) (protein, coding region in pAcHLT, baculovirus/Sf9 insect cells; 6xHis tag removed by thrombin) MTVTPKITVNDGNLVVHGKTILTGVPDNIVLTPGSGLGLVAGAFIGATASNSKSLHVFPVGVLEGTRFLCCFRFKLWWMTQRMGTSGRDIPFETQFLLMESQGNDGEDPDNSSTIYTVFLPLLEGQFRAALQGNEKNEMEICLESGDNTVETNQGLSLVYMHAGTNPFEVITQAVKAVEKHTQTFLHREKKKLPSFLDWFGWCTWDAFYTDVTAEGVVEGLQSLSDGGAPPKFLIIDDGWQQIEAKPKDADCVVQEGAQFASRLSGIKENHKFQKNGNNYDQVPGLKVVVDDAKKQHKVKFVYAWHALAGYWGGVKPASPGMEHYDSALAYPVQSPGMLGNQPDIVVDSLAVHGIGLVHPKKVFNFYNELHSYLASCGIDGVKVDVQNIIETLGAGHGGRVTLTRSYHQALEASIARNFSDNGCIACMCHNTDSLYSAKQTAVVRASDDYYPRDPASHTIHISSVAYNSLFLGEFMQPDWDMFHSLHPTAEYHGAARAIGGCAIYVSDKPGNHNFDLLKKLVLPDGSVLRAQLPGRPTRDSLFNDPARDGTSLLKIWNMNKCSGVVGVFNCQGAGWCRITKKTRIHDESPGTLTTSVRAADVDAISQVAGADWKGDTIVYAYRSGDLTRLPKGASVPVTLKVLEYDLFHISPLKDITSNISFAPIGLVDMFNIGGAVEQVDIQVVEPIPEFDGEVASELTCSLPDDRPPTATITMKARGCGRFGLYSSQRPLKCSVDKVGTDFVYDDVTGLVTFEIPIPTEEMYRWNIEIEV",2.21 ± 0.28,30.4 ± 2.85,5.23 ± 1.23
"CsAGA3 (Cucumis sativus) (protein, coding region in pAcHLT, baculovirus/Sf9 insect cells; 6xHis tag removed by thrombin) MTIKPAVRISDGKLIVKDRTILTGVPDNVIATSGSSSGPVEGVFLGAVFEEEQSRQVVSLGTLRDVRFMACFRFKLWWMAQKMGDKGKEIPLETQFLLLETKDGSHLESDDGNEENQIIYTVFLPLIEGSFRACLQGNGQDELELCLESGDVDTKASSFTHSLFIHAGTDPFDAISDAMKAVKLHLNTFRLRHEKKFPAIVDYFGWCTWDAFYHEVTQDGVEAGLESLTAGGVPPKFVIIDDGWQSVGGDPQEEKEEGDEKQPKQPPLLRLTAIRENSKFQKKEDPTEGIKNIVNIAKNKYGLKYVYVWHAITGYWGGVRTGVKDMEEYGSSMQYPKVSKGVFENEPIWKNDALALQGLGLMNPKNVYKFYNELHSYLASAGIDGVKVDAQSILETLGAGLGGRVELTRQYHQALDASVARNFPDNGIIACMSHHTDAVYCAKQTAVVRASDDFYPRDPVSHTIHIAAVAYNTVFLGEIMVPDWDMFHSLHSAAEYHASARAISGGPVYVSDAPGKHNFELLRKLVLPDGSVLRATLPGRPTRDCLFSDPARDGVSLLKIWNLNKFTGVIGIYNCQGAAWNSQERKNTFHDTNSDAITGYVKGRDVHAISKVAADPDWNGDCAFYRHLSGDLVTLPYNSALPVSLKVLEFDIFTISPIKVLAPGFSFAPIGLIDMYNSGGAIEGLKYEVKGGAKLVEVDGASEGIETASERVENRSSELVAIVHLEVKGCGRFGAYSSAKPRQCIVDSSVVEFGYDSESGLLTLGIDKLPEGDLKYHDVKIEL",1.24 ± 0.17,22.47 ± 1.87,3.26 ± 0.76
"CsAGA1 (Cucumis sativus) (protein, coding region in pAcHLT, baculovirus/Sf9 insect cells; 6xHis tag removed by thrombin) MTVGAGITISDANLTVLGNRVLSDVHNNITLTAAPGGGVMNGAFIGVQSDQIGSRRVFPIGKLIGLRFLCAFRFKLWWMTQRMGCSGQEIPFETQFLVVETRDGSNIAGNGEEGDAVYTVFLPILEGDFRAVLQGNDNNELEICLESGDPSVDGFEGSHLVFVGAGSDPFETITYAVKSVEKHLQTFAHRERKKMPDILNWFGWCTWDAFYTDVTSDGVKKGLESFENGGIPPKFVIIDDGWQSVAKDAASTDCKADNTANFANRLTHIKENYKFQKDGKEGERIENPALGLQHIVSYMKEKHATKYVYVWHAITGYWGGVSSGVKEMEQYESKIAYPVASPGVESNEPCDALNSISKTGLGLVNPEKVFNFYNEQHSYLASAGVDGVKVDVQNILETLGAGHGGRVKLARKYHQALEASISRNFQDNGIISCMSHNTDGLYSSKRNAVIRASDDFWPRDPASHTIHIASVAYNSLFLGEFMQPDWDMFHSLHPMAEYHGAARAVGGCAIYVSDKPGQHDFNLLKKLVLHDGSILRAKLPGRPTKDCLFADPARDGKSLLKIWNMNDLSGVVGVFNCQGAGWCKVGKKNLIHDENPDTITGVIRAKDVSYLWKIAGESWTGDAVIFSHLAGEVVYLPQDASMPITLKSREFDVFTVVPVKELANDIKFAPIGLMKMFNSGGAVKEMNHQPGSSNVSLKVRGSGPFGAYSSSKPKRVAVDSEEVEFIYDEGGLITIDLKVPEKELYLWDIRIEL",1.81 ± 0.39,2.08 ± 0.51,3.76 ± 0.89
